Assay results: publication PMC5998024, “Hydrophobic pore gates regulate ion permeation in polycystic kidney disease 2 and 2L1 channels” (Nature Communications, 2018)

Biological target: the molecule itself
Assay: cryo-EM structure; single-particle cryo-EM of purified PKD2 F604P (53-792) in amphipols A8-35; C4 symmetry imposed, reconstruction without imposed symmetry also showed C4 symmetry; 3.5 Å

B1: maltose binding protein fused human PKD2 protein, residues 53-792, harboring the F604P GOF mutation (domain or fragment, UniProt Q13563-1 53-792, looked up)
chain: EIEMQRIRQAAARDPPAGAAASPSPPLSSCSRQAWSRDNPGFEAEEEEEEVEGEEGGMVVEMDVEWRPGSRRSAASSAVSSVGARSRGLGGYHGAGHPSGRRRRREDQGPPCPSPVGGGDPLHRHLPLEGQPPRVAWAERLVRGLRGLWGTRLMEESSTNREKYLKSVLRELVTYLLFLIVLCILTYGMMSSNVYYYTRMMSQLFLDTPVSKTEKTNFKTLSSMEDFWKFTEGSLLDGLYWKMQPSNQTEADNRSFIFYENLLLGVPRIRQLRVRNGSCSIPQDLRDEIKECYDVYSVSSEDRAPFGPRNGTAWIYTSEKDLNGSSHWGIIATYSGAGYYLDLSRTREETAAQVASLKKNVWLDRGTRATFIDFSVYNANINLFCVVRLLVEFPATGGVIPSWQFQPLKLIRYVTTFDFFLAACEIIFCFFIFYYVVEEILEIRIHKLHYFRSFWNCLDVVIVVLSVVAIGINIYRTSNVEVLLQFLEDQNTFPNFEHLAYWQIQFNNIAAVTVFFVWIKLFKFINFNRTMSQLSTTMSRCAKDLFGFAIMPFIIFLAYAQLAYLVFGTQVDDFSTFQECIFTQFRIILGDINFAEIEEANRVLGPIYFTTFVFFMFFILLNMFLAIINDTYSEVKSDLAQQKAEMELSDLIRKGYHKALVKLKLKKNTVDDISESLRQGGGKLNFDELRQDLKGKGHTDAEIEAIFTKYDQDGDQELTEHEHQQMRDDLEKEREDLDLD
notes: human PKD2 (polycystin-2, TRPP2), residues 53-792 (E53-D792), with the gain-of-function mutation F604P; cytoplasmic N- and C-termini not seen in the map; also called PKD2 F604P; F604P mutant; source: HEK293S GnTI- cells, transduced with baculovirus, purified (amylose resin, amphipols A8-35, Superdex 200)
stoichiometry N: 4
